Results: PMC7316729, “The cryo-EM structure of the bacterial flagellum cap complex suggests a molecular mechanism for filament elongation” (Nature Communications, 2020)
“And” between values parts separate entries of the source, which are not always exact repeats. Identical values can stand only once.

Tests used:
[1] = biological target: the molecule itself; test: cryo-EM structure; purified FliDcj at 1 mg/ml vitrified on holey carbon grids; protein in 50 mM HEPES 150 mM NaCl pH 7; D5 symmetry (full map, 4.7 Å), C5 (head map, 5.0 Å)
[2] = biological target: the molecule itself; test: negative-stain TEM with 2D classification; purified protein on carbon-coated copper grids, 0.75% uranyl formate; ~3500 particles for FliDsm and 2700 for FliDpa, 2D class averages
[3] = biological target: T1, FliD from Pseudomonas aeruginosa, full length (P. aeruginosa), Q9K3C5; test: as above; conditions: remark: other sources report otherwise
T1 chain: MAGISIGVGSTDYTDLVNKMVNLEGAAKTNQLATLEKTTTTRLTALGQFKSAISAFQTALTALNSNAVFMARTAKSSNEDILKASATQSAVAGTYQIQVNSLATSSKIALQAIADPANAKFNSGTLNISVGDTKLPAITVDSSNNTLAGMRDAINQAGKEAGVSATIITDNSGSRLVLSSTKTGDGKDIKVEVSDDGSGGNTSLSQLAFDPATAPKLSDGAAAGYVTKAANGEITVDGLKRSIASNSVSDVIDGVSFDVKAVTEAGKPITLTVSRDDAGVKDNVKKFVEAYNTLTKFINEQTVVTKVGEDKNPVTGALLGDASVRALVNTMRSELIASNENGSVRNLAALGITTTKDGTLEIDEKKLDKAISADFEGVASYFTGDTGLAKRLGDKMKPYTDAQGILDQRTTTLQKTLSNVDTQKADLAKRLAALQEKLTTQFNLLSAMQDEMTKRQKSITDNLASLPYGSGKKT

B1: FliD from Campylobacter jejuni, full length (flagellum cap protein) (natural protein)
chain: MAFGSLSSLGFGSGVLTQDTIDKLKEAEQKARIDPYTKKIEENTTKQKDLTEIKTKLLSFQTAVSSLADATVFAKRKVVGSISDNPPASLTVNSGVALQSMNINVTQLAQKDVYQSKGLANDGGFVNAQLNGTADLTFFSNGKEYTVTVDKNTTYRDLADKINEASGGEIVAKIVNTGEKGTPYRLTLTSKETGEDSAISFYAGKKDSNGKYQKDINAEKIFDDLGWGLDVSASIDPDKDKKGYGIKDASLHIQTAQNAEFTLDGIKMFRSSNTVTDLGVGMTLTLNKTGEINFDVQQDFEGVTKAMQDLVDAYNDLVTNLNAATDYNSETGTKGTLQGISEVNSIRSSILADLFDSQVVDGTTEDANGNKVNTKVMLSMQDFGLSLNDAGTLSFDSSKFEQKVKEDPDSTESFFSNITKYEDINHTGEVIKTGSLSKYLNSNGGNTNGLEFKPGDFTIVFNNQTYDLSKNSDGTNFKLTGKTEEELLQNLANHINSKGIEGLKVKVESYNQNNVTGFRLNFSGDGSSDFSIKGDANILKELGLSDVNITSKPIEGKGIFSKLKATLQEMTGKDGSITKYDESLTNDIKSLNTSKDSTQAMIDTRYDTMANQWLQYESILNKLNQQLNTVTNMINAANNSNN
notes: FliD (flagellar cap protein, HAP2) of Campylobacter jejuni; gene codon-optimised for E. coli, synthesised and sub-cloned into pET28a; printed numbering runs to residue 643 (C-terminus 577-643); The D4 domain was not built in the model 6SIH; also called FliDcj; HAP2; source: E. coli BL21-CodonPlus(DE3)-RIL, purified (Ni-NTA, Superdex 200 SEC)
Question: B1 was tested. Which “stoichiometry N” value [1] did it give?
Answer: 10 and 5

B2: FliD from Serratia marcescens, full length (natural protein)
chain: MATISSLGLGSGLDLNGLLDKLTKAEQQRLTPYTTKQSSYNAQLTGYGTLKGALEKFDNLSKEMAKEDFFKATTATEHDAFKITTNAKAVPGNYVVEVNKLAQAQTLTTQAKVSDQGAKLGAEGVTDRSLTITAGNPPKETKIPLSDDQTSLVELRDAINGAKAGVTASIMRVGDNDYQLAVSSSTTGENNKISLQVDNDDQLGDILNYNATRGTGTAMKQTVAPQDAELTVNGTAIKRSTNSISDALQGVTIDLKTKTKTDEPQHLVISTNTAGTTDKIKEWVDSYNSLLDTFNALSKFTPVKTGEAPNPTNGPLLGDNTLRGIQSSIKSALSAAQDNPELKGLGNLGISTNTKTGKLEIDSAKLKKAMDEKPDQVSNFFVGNGKDTGMATEIHNEIQSYIKSGGIIENSTKSINTNLDRLNSQITTVTASIQNTIDRYKQQFVQLDTMMSKMNGTSNYLAQQFK
notes: FliD (flagellar cap protein) of Serratia marcescens; gene codon-optimised for E. coli, synthesised and sub-cloned into pET28a; The head domain of this protein is PDB 5XLJ (cited); also called FliDsm; source: E. coli BL21-CodonPlus(DE3)-RIL, purified (Ni-NTA, Superdex 200 SEC)
Question: Which “stoichiometry N” value [2] does the source give for B2 here?
Answer: 5

B3: FliD from Pseudomonas aeruginosa, full length, Q9K3C5 1-474 (natural protein)
chain: MAGISIGVGSTDYTDLVNKMVNLEGAAKTNQLATLEKTTTTRLTALGQFKSAISAFQTALTALNSNAVFMARTAKSSNEDILKASATQSAVAGTYQIQVNSLATSSKIALQAIADPANAKFNSGTLNISVGDTKLPAITVDSSNNTLAGMRDAINQAGKEAGVSATIITDNSGSRLVLSSTKTGDGKDIKVEVSDDGSGGNTSLSQLAFDPATAPKLSDGAAAGYVTKAANGEITVDGLKRSIASNSVSDVIDGVSFDVKAVTEAGKPITLTVSRDDAGVKDNVKKFVEAYNTLTKFINEQTVVTKVGEDKNPVTGALLGDASVRALVNTMRSELIASNENGSVRNLAALGITTTKDGTLEIDEKKLDKAISADFEGVASYFTGDTGLAKRLGDKMKPYTDAQGILDQRTTTLQKTLSNVDTQKADLAKRLAALQEKLTTQFNLLSAMQDEMTKRQKSITDNLASLPYGSGKKT
Question: With B3 as the binder, how does the percent of particles that are pentamers [3] read?
Answer: 25.5%

Question: What about the stoichiometry N [3] of the same binder?
Answer: 5
